Measured values as given in patent publication US11517591B2, “Immunogenic peptides specific to BCMA and TACI antigens” (Dana-Farber Cancer Institute, Inc., priority 2017, dated 2022).
Blank lines part the entries; values can stand above or below the compound they belong to.

How the values were obtained:
tumor cells = test: Combination of peptide stimulation/vaccination with immune modulatory drugs, peptide-specific CTL activity; assay type: cell-based, human; conditions: in combination with XBP1/CD138/CS1 peptide stimulation/vaccination
Source text: Even in patients with refractory MINI relapsing after allotransplantation, long-lasting responses have been achieved with the infusion of donor lymphocytes (DLI). These early encouraging results of DLI have provided the framework for evaluation of active-specific immunotherapy approaches to treat MM. […] The success of vaccination depends on selection of the appropriate patient population, targeting antigens expressed selectively on tumor, and utilizing combination approaches to effectively induce and maintain antigen-specific memory anti-tumor immune responses. […] Importantly, these effects were confined primarily to antigen-specific CD45RO^+ memory CTL, with the most robust increases in IFN-γ and granzyme B production and CD8^+ T cell proliferation in response to tumor cells observed mainly within the specific CM subset.

[1] = test system: patients with smoldering MM (SMM); test: Clinical trials of XBP1/CD138/CS1 multipeptide vaccine in smoldering MM; assay type: in vivo, human; conditions: multipeptide vaccine in combination with lenalidomide
Source text: Due to the encouraging preclinical results, the XBP1/CD138/CS1 multipeptide vaccine has been evaluated, alone and in combination with lenalidomide, in clinical trials to treat patients with smoldering MM (SMM), as well as in combination with anti-PD1 in clinical trials to treat patients with triple negative breast cancer. […] Although stable disease and responses have been observed in SMM, randomized trials are needed to assess whether time to progression from SMM to active disease can be prolonged by the peptide vaccination.

HLA-A2 molecule [2] = target: T1, HLA-A2 molecule (Homo sapiens, UniProt P04439, D140Y/D185E/D98H/E176V/E277Q/G131W/G231S/I119V/I121R/I166T/I218V/L300P/L318F/N151K/N90K/P208A/P217A/Q86G/Q94H/R138H/R169H/T345S); test: HLA-A2 binding affinity assay on peptide-pulsed T2 cells (HLA-A2 up-regulation, flow cytometry MFI); conditions: for HLA-A2 binding affinity of native BCMA peptides: Example 12, six native peptides; for HLA-A2 specificity (up-regulation of HLA-A2 on T2 cells, MFI): native peptides 0-200 μg/ml, overnight, Example 3, FIGS. 2, 3; for HLA-A2 binding affinity, heteroclitic vs native peptide: Example 4, FIGS. 4 and 5; for change in HLA-A2 binding affinity of heteroclitic BCMA peptide compared to native peptide: Example 12, n=3, p<0.05; for HLA-A2 affinity of heteroclitic TACI peptide compared to native peptide: Example 13, peptide doses 50 μg/ml and 100 μg/ml
T1 construct: endogenous in cells; host or cells: T2 cell line (human B and T cell hybrid), provided by Dr. J. Molldrem
Description: The listed BCMA peptides were evaluated for HLA-A2-specific binding capacity using the T2 cell line. In the assay, T2 cells were washed, resuspended in serum-free AIM-V medium to a final concentration of 1×10^6 cells/ml and transferred into wells of a 24-well tissue culture plate. The cells were pulsed with different concentrations of respective BCMA peptide (0-200 μg/ml) plus 3 μg/ml human β2-microglobulin (Sigma) and incubated at 37° C., 5% CO2 in humidified air. Following overnight incubation, the cells were washed, stained with mouse anti-human HLA-A2-FITC mAb for 15 minutes at 4° C., washed and analyzed using a FACSort™ flow cytometer with CellQuest™ v2.1 software (Becton Dickinson, San Jose, Calif.). […] Among the BCMA peptides evaluated, “#4. […] (FIG. 2).
(§1) T2 cells were pulsed overnight with various doses of peptide plus β2-microglobulin (3 μg/ml) (Sigma, St Louis, Mo.). Following overnight incubation, the cells were stained with HLA-A2-PE mAb and analyzed using a FACSCanto™ flow cytometer (BD). Peptide/HLA-A2 complex stability was measured on peptide loaded T2 cells at 0, 2, 4, 6 and 14 hours post-brefeldin A treatment by staining with HLA-A2-PE mAb and flow cytometric analysis.
as §1, with “concentrations” for “doses”, “The stability of peptide/HLA-A2” for “Peptide/HLA-A2”, “binding” for “stability”, “treatment followed” for “treatment”

HLA-A2 molecule [3] = target: T1, HLA-A2 molecule; test: Peptide/HLA-A2 complex stability on peptide-loaded T2 cells post-brefeldin A; assay type: binding
Description: The native and heteroclitic BCMA and TACI peptides were examined for HLA-A2 binding stability using the T2 cell line. T2 cells were pulsed with the respective peptide. After overnight incubation, the cells were washed to remove unbound peptide; they were evaluated for binding affinity as shown above and stability as following. The cells were incubated with 10 μg/ml Brefeldin A (Sigma) at 37° C. and 5% CO2 for 1 hour to block cell surface expression of newly synthesized HLA-A2 molecules. Peptide/HLA-A2 binding stability was evaluated at 0, 2, 4, 6 and 18 hours post-Brefeldin A treatment. Following the incubation period, the cells were harvested, washed, stained with mouse anti-human HLA-A2-FITC mAb and analyzed by flow cytometry. […] Therefore, the Heteroclitic #4 BCMA72-80 (YLMFLLRKI (SEQ ID NO: 13)) and Heteroclitic #3. TACI154-162 (YLSADQVAL (SEQ ID NO: 16) peptides were selected for further evaluation of their immunogenic potential to generate MM-specific cytotoxic T cells (CTLs).
as §1
as §1, with “concentrations” for “doses”, “The stability of peptide/HLA-A2” for “Peptide/HLA-A2”, “binding” for “stability”, “treatment followed” for “treatment”

[4] = test system: CD3+ T cells obtained from HLA-A2+ donors; test: Induction and phenotypic analysis of peptide-specific CTL by repeated peptide stimulation; assay type: cell-based, human
Description: The peptide-specific CTL were generated from different HLA-A2^+ normal donors for the evaluation of the functional activities targeting MM cell lines. To generate the peptide-specific CTL, mature dendritic cells (mDC) generated from the same donor were resuspended in serum-free AIM-V media and pulsed with 50 μg/ml of the Heteroclitic #4 BCMA72-80 (YLMFLLRKI (SEQ ID NO: 13)) peptide or “Heteroclitic #3 TACI154-162 (YLSADQVAL (SEQ ID NO: 16))” peptide, overnight at 37° C., 5% CO2 in humidified air. The peptide-pulsed mDC were washed, counted, irradiated at 10 Gy and used to prime CD3^+ T cells at a 1:20 antigen-presenting cells/peptide-to-CD3^+ T cell ratio in AIM-V media supplemented with 10% human AB serum. […] To maintain the T cells ex vivo, IL-2 (50 U/ml) was added to the cultures two days after the second stimulation. Control T cell cultures were maintained under the same culture conditions in the presence of IL-2 (50 U/ml), but without peptide stimulation. Phenotype of the resulting CTL was evaluated one week after each cycle of peptide stimulation. […] The BCMA peptide-specific CTL cultures contained a higher percentage of CD8^+ T cells (˜80%) upon 4 cycle of peptide stimulation compared to non-peptide stimulated control T cells (˜20%) (FIGS. 8A-8C).
Antigen-specific CTL can be phenotypically identified as activated/memory T cells from naïve T cells by their expression of distinct cell surface antigens. The phenotype of the BCMA-CTL were examined as potential effector cells by analyzing the phenotype of naïve and memory cells. BCMA peptide-specific CTL were generated by repeated stimulation of HLA-A2^+ normal donor's CD3^+ T cells weekly with antigen-presenting cells pulsed with 50 μg/ml heteroclitic BCMA72-80 (YLMFLLRKI (SEQ ID NO: 13)). One week after each peptide stimulation, the resulting CTL were evaluated for their phenotypic profile by flow cytometry.
BCMA peptide-specific CTL (BCMA-CTL) were generated ex vivo by repeated stimulation of CD3^+ T cells obtained from HLA-A2^+ donors with peptide-pulsed antigen-presenting cells (APC). In brief, peptide (50 μg/ml)-pulsed APC were irradiated (10 Gy) and used to stimulate T cells at a 1 APC/peptide: 20 T cell ratio. The T cell cultures were restimulated every 7 days and maintained in AIM-V medium supplemented with 10% human AB serum (BioWhittaker) in the presence of IL-2 (50 units/ml).
Phenotypic characterization was performed on BCMA-CTL after staining with Live/Dead Aqua stain kit and fluorochrome conjugated anti-human mAbs and Tetramer-PE. Alternatively, the MM and breast cancer cell lines were stained with fluorochrome-conjugated BCMA or HLA-A2 mAb. After staining, the cells were washed, fixed in 2% paraformaldehyde, and analyzed by flow cytometry.
TACI peptide-specific CTL (TACI-CTL) were generated ex vivo by repeated stimulation of enriched CD3^+ T cells obtained from HLA-A2^+ donors with peptide-pulsed antigen-presenting cells (APC). In brief, peptide (50 μg/ml)-pulsed APC were irradiated (10 Gy) and used to stimulate T cells at a 1:20 APC/peptide-to-T cell ratio. The T cell cultures were restimulated every 7 days and maintained in AIM-V medium supplemented with 10% human AB serum (BioWhittaker) in the presence of IL-2 (50 units/ml).
Phenotypic characterization was performed on the MM target cells to conform TACI expression. Phenotypic characterization was performed on the TACI-CTL after staining with Live/Dead Aqua stain kit and fluorochrome conjugated anti-human mAbs. After staining, the cells were washed, fixed in 2% paraformaldehyde, and analyzed by flow cytometry.

[5] = after 3 cycles of peptide stimulation
[6] = after 4 cycles of peptide stimulation

HLA-A2 affinity of native TACI peptides (HLA-A2 molecule [2]; Example 13, six native peptides): highest level of affinity
HLA-A2 specificity (up-regulation of HLA-A2 on T2 cells, MFI) (HLA-A2 molecule [2]): highest level
Compound: TLGLCLCAV [TACI166-174 (TLGLCLCAV), native TACI peptide]

HLA-A2 binding affinity, heteroclitic vs native peptide (HLA-A2 molecule [2]): increased from their native peptide
HLA-A2 stability of heteroclitic vs native BCMA peptide (HLA-A2 molecule [3]; Example 12): further enhanced
Compound: YILWTCLGL [heteroclitic hBCMA54-62, heteroclitic BCMA peptide]
change in HLA-A2 binding affinity of heteroclitic BCMA peptide compared to native peptide (HLA-A2 molecule [2]): highest increase in HLA-A2 binding affinity

HLA-A2 binding affinity, heteroclitic vs native peptide (HLA-A2 molecule [2]): increased from their native peptide
Compound: YLSADQVAL [heteroclitic TACI154-162, heteroclitic TACI peptide]
HLA-A2 affinity of heteroclitic TACI peptide compared to native peptide (HLA-A2 molecule [2]): greatly enhanced affinity from its native form
HLA-A2 binding stability, heteroclitic vs native peptide (HLA-A2 molecule [3]; 50 ug/ml, 0, 2, 4, 6 and 18 hours post-Brefeldin A, Example 4, FIGS. 6 and 7): significant improvement in their HLA-A2 affinity at all the time points evaluated
HLA-A2 binding affinity (time=0) and stability compared to native peptide (HLA-A2 molecule [3]; TACI peptides 50 μg/ml, 2, 4, 6 and 18 hours): highest HLA-A2 binding affinity (time=0) and stability (2, 4, 6 and 18 hours)
CM CD8+ T cells [4, 5]: 47.8%
EM CD8+ T cells [4, 5]: 52.4%
Naïve CD8+ T cells [4, 5]: 2.2%
CM CD8+ T cells [4, 6]: 24.4%
EM CD8+ T cells [4, 6]: 74.1%
Naïve CD8+ T cells [4, 6]: 0.72%
frequency of effector memory (CD45RO+/CCR7-) CD3+CD8+ T cells [4, 6]: increased
CM CD8+ T cells ([4]; after 5 cycles of stimulation): 7.36%
EM CD8+ T cells ([4]; after 5 cycles of stimulation): 69.7%
Naïve CD8+ T cells ([4]; after 5 cycles of stimulation): 0.57%

change in HLA-A2 binding affinity of heteroclitic BCMA peptide compared to native peptide (HLA-A2 molecule [2]): did not alter its HLA-A2 affinity status
Compound: YQNEYFDSL [heteroclite BCMA9-17, heteroclitic BCMA peptide]

Second part, the compound before the results:

Compound: O=C(CCCCCCNC(=O)c1cnc(N(c2ccccc2)c2ccccc2Cl)nc1)NO [ACY241]
peptides-specific CTL activities against tumor cells (tumor cells): enhanced the peptides-specific CTL activities against tumor cells

Compound: Nc1cccc2c1CN(C1CCC(=O)NC1=O)C2=O (stereo not drawn) [lenalidomide]
peptides-specific CTL activities against tumor cells (tumor cells): enhanced the peptides-specific CTL activities against tumor cells
CD8+ T cells with tetramer-positivity and IFN-γ production [1]: triggered higher mean fold increases in CD8^+ T cells with tetramer-positivity and IFN-γ production

Compound: AILWTCLGL [BCMA54-62 (AILWTCLGL), native BCMA peptide]
HLA-A2 binding affinity of native BCMA peptides (HLA-A2 molecule [2]): highest HLA-A2 binding affinity in a dose-dependent manner
HLA-A2 specificity (up-regulation of HLA-A2 on T2 cells, MFI) (HLA-A2 molecule [2]): second highest level of the specificity

Compound: SQNEYFDSL [BCMA9-17 (SQNEYFDSL), native BCMA peptide]
HLA-A2 binding affinity of native BCMA peptides (HLA-A2 molecule [2]): non-HLA-A2 specific

Compound: VLMFLLRKI [BCMA72-80 (VLMFLLRKI), native BCMA peptide]
HLA-A2 binding affinity of native BCMA peptides (HLA-A2 molecule [2]): highest HLA-A2 binding affinity in a dose-dependent manner
HLA-A2 specificity (up-regulation of HLA-A2 on T2 cells, MFI) (HLA-A2 molecule [2]): highest level of HLA-A2 specificity

Compound: YLGLCLCAV [heteroclitic TACI166-174, heteroclitic TACI peptide]
HLA-A2 affinity of heteroclitic TACI peptide compared to native peptide (HLA-A2 molecule [2]): no significant improvement in HLA-A2 affinity

Compound: YLVAVACFL [heteroclitic TACI178-186, heteroclitic TACI peptide]
HLA-A2 affinity of heteroclitic TACI peptide compared to native peptide (HLA-A2 molecule [2]): no significant improvement in HLA-A2 affinity
